3 substances from article PMC8964761 can be followed below.

In assay [1] the target is dimeric suPAR (human) (UniProt Q03405). Nature of the assay: SEC; suPAR dimer mixed with excess ATF, 30 min at room temperature; complex purified on Superdex 200 10/300 (20 mM Tris pH 7.4, 150 mM KCl) and quantified by SDS-PAGE.
For assay [2] the target is unchanged. Nature of the assay: SPR; Biacore T200; suPAR monomer or dimer captured on anti-uPAR antibody immobilised on a CM5 chip; ATF (0.14-33.3 nM) or scuPA (0.54-44.4 nM) flowed over; 10 mM HEPES, 150 mM NaCl, 3 mM EDTA, 0.005% P-20, pH 7.4, 20 °C; 1:1 Langmuir fit.
A further assay deals with FITC conjugated ATF. Briefly: high-content fluorescence imaging of FITC-ATF on 293T cells (FITC/mRuby3 intensity ratio). The conditions noted are these: FITC-ATF for 1 h; uPAR-mRuby3 expressing 293T cells; parent: est. 0.41; read off a plot.

UniProt Q03405, sequence (Q03405 23-299): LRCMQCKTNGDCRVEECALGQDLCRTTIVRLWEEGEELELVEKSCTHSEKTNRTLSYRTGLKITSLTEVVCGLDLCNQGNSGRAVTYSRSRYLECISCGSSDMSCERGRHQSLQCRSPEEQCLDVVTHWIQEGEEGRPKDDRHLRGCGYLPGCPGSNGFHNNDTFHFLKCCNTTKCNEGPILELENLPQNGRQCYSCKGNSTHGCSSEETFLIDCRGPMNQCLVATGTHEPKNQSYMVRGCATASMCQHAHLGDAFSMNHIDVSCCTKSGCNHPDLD

Substance “amino terminal fragment of uPA (ATF) (domain or fragment)” came in with a stoichiometry N (ATF molecules per uPAR dimer) with dimeric suPAR (human) [1] of 2. This substance returned a Kd with dimeric suPAR (human) [2] of 672 pM.

For the substance “uPAR^WT fused with mRuby3 (suPAR-mRuby3-GPI) (from UniProt Q03405) E49P”, the response with FITC conjugated ATF was 0.43.

Turning to “uPAR^WT fused with mRuby3 (suPAR-mRuby3-GPI) (from UniProt Q03405) H47C; N259C”, the response with FITC conjugated ATF amounted to 0.27.
